B1: 180C 2A12: anti-naltrexone monoclonal antibody generated using naltrexone-3-Val-mcKLH; heavy chain SEQ ID NO:1, light chain SEQ ID NO:5 (antibody)
heavy: MGWSWIFLFLLSGTAGVHCQVQLQQSGPELVKPGGSVKLSCKASGYIFNDYTIHWMKQSPGQGLEWIGWMNRRSFNTMYNDKFKGKATMTVDKSSSTAYIQLSSLTSDDSAVYFCVRDVYDNLDYWGQGTSVTVSSAKTTPPSVYPLAPGSAAQTNSMVTLGCLVKGYFPEPVTVTWNSGSLSSGVHTFPAVLQSDLYTLSSSVTVPSSTWPSETVTCNVAHPASSTKVDKKIVPRDCGCKPCICTVPEVSSVFIFPPKPKDVLTITLTPKVTCVVVDISKDDPEVQFSWFVDDVEVHTAQTQPREEQFNSTFRSVSELPIMHQDWLNGKEFKCRVNSAAFPAPIEKTISKTKGRPKAPQVYTIPPPKEQMAKDKVSLTCMITDFFPEDITVEWQWNGQPAENYKNTQPIMDTDGSYFIYSKLNVQKSNWEAGNTFTCSVLHEGLHNHHTEKSLSHSPGK
light: MKLPVRLLVLMFWIPASSSDVLMTQTPLSLPVSLGDQASISCRSSQSIVHSNGNTYLEWYLQKPGQSPRLLIYKVSNRFSGVPDRFSGSGSGTDFTLRISRVEAEDLGLYYCFQGSHVPLTFGAGTKLELKRADAAPTVSIFPPSSEQLTSGGASVVCFLNNFYPRDINVKWKIDGSERQNGVLNSWTDQDSKDSTYSMSSTLTLTKDEYERHNSYTCEATHKTSTSPIVKSFNRNEC
modifications: Amino Acid sequence of heavy chain of monoclonal antibody SHC 004; Amino acid sequence of Light Chain of monoclonal antibody SHC 004
B2: 179A 6H6: anti-naloxone monoclonal antibody generated using naloxone-3-Val-mcKLH; heavy chain SEQ ID NO:221, light chain SEQ ID NO:225 (antibody, V domains shown)
VH: MYLGLNCVIIVFLLKGVQSEVKLEESGGGLVPPGGSMKLSCSVSGFTFSDAWIDWVRQSPEKGLEWIAESRNKANNYAIYYTESVKGRFTISRDDSKSRVYLQMNNLRVEDTGIYYCTGPDYDSYWGGTLVTVSA
VL: MEFQTQVFVFVLLWLSGVDGDVVMTQSQKIMSTSVGDRVSITCKASQNVRTAVTWYQLKPGQSPKALIYLASNRHTGVPDRFRGSGSGTDFTLTIINVQSEDLADYFCLQHWNYPLTFGAGTKLELK
modifications: Amino acid sequence of heavy chain of monoclonal antibody 179A 6H6; Amino acid sequence of light chain of monoclonal antibody 179A 6H6

Assays:
[1] = Randox naloxone assay, competitive chemiluminescent immunoassay; cited from earlier work
[2] = inhibition ELISA, anti-naltrexone monoclonal antibodies against key opioids (FIG. 8); assay type: binding; details: free drug 20 μg/mL, plates coated with ovalbumin conjugate
Description: (§1) Mice with good anti-drug antibody titers and binding to free drug in the ELISA inhibition assays were selected to proceed with generation of monoclonal antibodies, in a similar manner to that described in U.S. Pat. No. 9,815,907 (issued to Sharma et al. on Nov. 14, 2017). In particular, mice with highest titers and best specificity were boosted three days prior to fusion. On the day of fusion, spleen cells were harvested from these mice and were fused with myeloma cell line P3X63Ag8.653 using PEG-assisted fusion protocols. After about ten days, hybridoma supernatants were screened for anti-naloxone and anti-naltrexone antibodies using a plate ELISA (direct binding and inhibition ELISA for specificity). Positive clones were further expanded and sub-cloned, and supernatants were purified using a Protein A SEPHAROSE® (GE Healthcare, Chicago, IL) column. Purified antibody samples were tested using ELISA for binding to the immunogen (i.e., a conjugate of drug-carrier protein) and to free opioids.
(§2) Antibody solution (Immune mouse bleeds or hybridoma clones supernatant or purified antibody) was screened using an inhibition ELISA procedure according to the following protocol. […] Plate coating was performed for 1 hour or more at room temperature or overnight at about 2° C. to 8° C. The plates were then flicked dry and blocked with 200 μL per well of blocking buffer solution (0.5% Casein solution in PBS containing 0.05% TWEEN® 20 surfactant (Croda International PLC, Snaith, United Kingdom). Plate blocking was performed by incubation for 30 minutes or more at room temperature with plate shaking. The plates were washed using a plate washer (BioTek®, Winooski, VT) with plate stacker with the washing buffer being MILLIQ® water (Millipore Corporation, Billerica, MA) containing 0.05% TWEEN® 20. The monoclonal antibody to be screened was then added to each well along with free drug as follows: 25 μL per well of appropriately diluted culture supernatant (or antibody solution) and added 25 μL of 20 μg/mL of free drug. Incubation was performed for about 1 hour at room temperature with plate shaking. The plate was washed. An enzyme conjugate (goat anti-mouse IgG coupled to HRP diluted in blocking buffer diluted to 1:3000) was added at 50 μL per well. Incubation was performed for about 1 hour at room temperature with shaking. The plate was then washed, and a chromogenic solution (TMB from Moss Substrates, Pasadena MD) was added at a volume of 100 μL per well. If a desired antibody was present in the hybridoma supernatant, then a decrease in optical density was observed compared to the well containing no free drug. The plates were read at 650 nm wavelength using an ELISA plate reader (Molecular Devices, San Jose, CA). Note: appropriate dilution of antibody solution was determined by performing a titration ELISA. The antibody dilution was chosen where around 1.0 optical density was observed.

[3] = naloxone and naltrexone specific immunoassays (FIG. 9, FIG. 10); assay type: binding; details: FIG. 9 and FIG. 10
Description: An EMIT® II (enzyme multiplied immunoassay, Siemens Healthineers, Newark, DE) Plus Naloxone and/or Naltrexone Assay is a homogeneous enzyme immunoassay technique used for the analysis of specific compounds in human urine. The assay is based on competition between drug in the specimen and drug labeled with glucose-6-phosphate dehydrogenase (rG6PDH) for antibody binding sites. Enzyme activity decreases upon binding to the antibody, so the drug concentration in the specimen can be measured in terms of enzyme activity. Active enzyme converts nicotinamide adenine dinucleotide (NAD) to NADH in the presence of glucose-6-phosphate (G6P), resulting in an absorbance change that is measured spectrophotometrically.
The EMIT® assay format comprises an antibody/substrate reagent, known as reagent 1. This reagent includes the antibody as well as buffers, preservatives, and stabilizers for the assay. The EMIT® assay format also comprises an enzyme reagent, known as reagent 2. This reagent includes the conjugate as well as buffers, preservatives, and stabilizers for the assay.

[4] = hydrocodone assay with antibody blocker (FIG. 13); details: cutoff 300 ng/ml
[5] = inhibition ELISA, anti-naloxone monoclonal antibodies against key opioids (FIG. 7); assay type: binding; details: free drug 20 μg/mL, plates coated with ovalbumin conjugate
Description: as §1, §2

[6] = opiate enzyme multiplied immunoassay with antibody blocker (FIG. 11, FIG. 12); details: cutoff 300 ng/mL; FIG. 11 and FIG. 12

| Molecule | level of cross-reactivity [1] | specificity for naltrexone over the other key opioids tested in the inhibition ELISA assay [2] | detection of naloxone and naltrexone in specific assays [3] | effect of the antibody blocker on amount of naloxone and naltrexone giving a negative response [4] | specificity for naloxone over the other key opioids tested in the inhibition ELISA assay [5] | change of naloxone/naltrexone cross reactivity response in the presence of the antibody blocker [6] |
| --- | --- | --- | --- | --- | --- | --- |
| C=CCN1CC[C@]23c4c5ccc(O[C@@H]6O[C@H](C(=O)O)[C@@H](O)[C@H](O)[C@H]6O)c4O[C@H]2C(=O)CC[C@@]3(O)[C@H]1C5 [naloxone 3-B-D glucuronide] | 70.6% | – | – | – | – | – |
| B1 | – | good specificity for naltrexone | capable of detecting naloxone in addition to naltrexone, albeit at a lower specificity compared to naltrexone | increase the amount of naloxone and naltrexone that produces a negative response to the cutoff | – | – |
| B2 | – | – | detects both naloxone and naltrexone at substantially the same specificity | – | good specificity for naloxone | cross reactivity of naloxone changes from a positive to a negative response to the cutoff |

Reference: patent US12404346B2, “Anti-naloxone and anti-naltrexone monoclonal antibodies and methods of production and use thereof” (Siemens Healthcare Diagnostics Inc., priority 2019, dated 2025)
